The target of this assay is MUC4 glycopeptide. The experiment in a line: peptide or protein array; glycan microarray, components printed on epoxy slides; re-expressed antibody in solution at four concentrations from 1.5 to 100 μg/ml on the 873-component array; PBS pH 7.4, 0.05% Tween-20, 3% BSA; 37 °C, 3.5 h; detected with Cy3 anti-human IgG; apparent KD estimated by the method of Gordus and MacBeath.

B1: ADI-47299 (antibody, V domains shown)
VH: QVQLVQSGGGVVQPGRSLRLSCAASGFTFRLYSMHWVRQAPGKGLEWVGVISHTVTDKLYADSVKGRFSVSRDNSKNTLFLQMDSLRAEDTAVYYCARDGFDYWGQGTLVTVSS
VL: EIVMTQSPLSLPVTLGQPASISCKSSQSLVYSDGDTYLNWFQQRPGQSPRRLIYKVSKRDSGVPDRFSGSGSGTDFTLKISRVEAEDLGVYYCMQGTHWPLTFGPGTKLEIK
For the molecule B1, the Kd was above 1 µM.

The record behind these values is publication PMC9576894.
